These results are taken from PMC12422955 (Nature, 2025).

The labels stand for the following.
B2: recombinant homomeric GluA4 receptor (C-terminal GFP and Strep tag) (receptor, UniProt P19493 21-902, looked up)
chain: GAFPSSVQIGGLFIRNTDQEYTAFRLAIFLHNTSPNASEAPFNLVPHVDNIETANSFAVTNAFCSQYSRGVFAIFGLYDKRSVHTLTSFCSALHISLITPSFPTEGESQFVLQLRPSLRGALLSLLDHYEWNCFVFLYDTDRGYSILQAIMEKAGQNGWHVSAICVENFNDVSYRQLLEELDRRQEKKFVIDCEIERLQNILEQIVSVGKHVKGYHYIIANLGFKDISLERFIHGGANVTGFQLVDFNTPMVTKLMDRWKKLDQREYPGSETPPKYTSALTYDGVLVMAETFRSLRRQKIDISRRGNAGDCLANPAAPWGQGIDMERTLKQVRIQGLTGNVQFDHYGRRVNYTMDVFELKSTGPRKVGYWNDMDKLVLIQDMPTLGNDTAAIENRTVVVTTIMESPYVMYKKNHEMFEGNDKYEGYCVDLASEIAKHIGIKYKIAIVPDGKYGARDADTKIWNGMVGELVYGKAEIAIAPLTITLVREEVIDFSKPFMSLGISIMIKKPQKSKPGVFSFLDPLAYEIWMCIVFAYIGVSVVLFLVSRFSPYEWHTEEPEDGKEGPSDQPPNEFGIFNSLWFSLGAFMQQGCDISPRSLSGRIVGGVWWFFTLIIISSYTANLAAFLTVERMVSPIESAEDLAKQTEIAYGTLDSGSTKEFFRRSKIAVYEKMWTYMRSAEPSVFTRTTAEGVARVRKSKGKFAFLLESTMNEYTEQRKPCDTMKVGGNLDSKGYGVATPKGSSLGNAVNLAVLKLNEQGLLDKLKNKWWYDKGECGSGGGDSKDKTSALSLSNVAGVFYILVGGLGLAMLVALIEFCYKSRAEAKRMKLTFSEATRNKARLSITGSVGENGRVLTPDCPKAVHTGTAIRQSSGLAVIASDLP
notes: GluA4; also called recombinant GluA4; rGluA4-GFP; source: tsA201 cells (BacMam), digitonin-solubilised, purified (Strep-Tactin, SEC); not shown: GFP, C-terminal, kept

What all share (conditions): both partners purified
The target in assay [1] is B2. Briefly: BLI; Octet RED384, 30 °C; Fc–dNOE1–mScarlet (20 μg/ml) captured on AMC biosensor; GluA4–GFP 0.78–50 nM; 20 mM Tris pH 8.0, 150 mM NaCl, 0.075% digitonin with 3 mM glutamate or 2 μM ZK and 10 μM (R,R)-2b; 1:1 binding model. (BLI is a label-free optical method that tracks binding on a fibre tip over time.)
In assay [2] the target is T1, recombinant full-length NOE1–mScarlet-His (rat, UniProt Q62609 25-485).
T1 construct: signal peptide in the construct; full-length rat NOE1, residues 1-485; Tag joined by an SG linker or an SG–HRV 3C site–AAAA motif; source: tsA201 cells (BacMam), secreted, purified (Ni-NTA, SEC); not shown: mScarlet, C-terminal, kept
Description: SEC; FSEC, Superose 6 calibrated with mass markers; 5 nM full-length NOE1–mScarlet with 5–150 nM GluA4, or 1 nM with 1–100 nM CP-AMPARs; mScarlet fluorescence.

The target of assay [3] is dNOE1–mScarlet (dimeric NOE1 construct, residues 205-481 with five GCN4 residues) (rat, UniProt Q62609 205-481). Description: SEC; FSEC of the dNOE1 construct alone, in the absence of a reducing agent. A general note: Size exclusion chromatography separates by hydrodynamic size, large species first.

T1 sequence (Q62609 25-485): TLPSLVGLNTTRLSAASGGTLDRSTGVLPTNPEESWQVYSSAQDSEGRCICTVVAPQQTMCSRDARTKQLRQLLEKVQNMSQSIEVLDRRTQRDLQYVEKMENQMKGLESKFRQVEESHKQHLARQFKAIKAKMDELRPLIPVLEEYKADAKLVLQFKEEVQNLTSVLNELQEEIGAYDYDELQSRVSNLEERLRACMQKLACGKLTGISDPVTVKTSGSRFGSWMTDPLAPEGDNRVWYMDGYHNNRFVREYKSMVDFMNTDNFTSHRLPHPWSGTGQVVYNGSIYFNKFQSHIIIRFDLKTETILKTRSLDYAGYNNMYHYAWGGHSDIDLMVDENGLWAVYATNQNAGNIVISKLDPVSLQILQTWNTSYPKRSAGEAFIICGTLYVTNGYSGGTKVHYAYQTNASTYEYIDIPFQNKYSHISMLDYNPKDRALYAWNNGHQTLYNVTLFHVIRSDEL

B1: Fc–dNOE1–mScarlet (Fc fusion)
chain: LKQEIDELQSRVSNLEERLRACMQKLACGKLTGISDPVTVKTSGSRFGSWMTDPLAPEGDNRVWYMDGYHNNRFVREYKSMVDFMNTDNFTSHRLPHPWSGTGQVVYNGSIYFNKFQSHIIIRFDLKTETILKTRSLDYAGYNNMYHYAWGGHSDIDLMVDENGLWAVYATNQNAGNIVISKLDPVSLQILQTWNTSYPKRSAGEAFIICGTLYVTNGYSGGTKVHYAYQTNASTYEYIDIPFQNKYSHISMLDYNPKDRALYAWNNGHQTLYNVTLFHVIR
modifications: Disulfide-linked, glycosylated dimer. Mouse Fc carrier (before the coiled coil) and C-terminal mScarlet-His left out. The position of the five GCN4 residues relative to Fc is not given; they are …
B1: the Kd – broadly, a measure of binding affinity in units of concentration – in assay [1] is about 9.4 nM.

Take B2: the stoichiometry N (in general, the number of molecules, sites or subunits per partner or assembly) in assay [2] was 2 receptors per NOE1 tetramer.

B3: dNOE1–mScarlet (dimeric NOE1 construct, residues 205-481 with five GCN4 residues) (domain or fragment)
chain: GLKQEIDELQSRVSNLEERLRACMQKLACGKLTGISDPVTVKTSGSRFGSWMTDPLAPEGDNRVWYMDGYHNNRFVREYKSMVDFMNTDNFTSHRLPHPWSGTGQVVYNGSIYFNKFQSHIIIRFDLKTETILKTRSLDYAGYNNMYHYAWGGHSDIDLMVDENGLWAVYATNQNAGNIVISKLDPVSLQILQTWNTSYPKRSAGEAFIICGTLYVTNGYSGGTKVHYAYQTNASTYEYIDIPFQNKYSHISMLDYNPKDRALYAWNNGHQTLYNVTLFHVIR
modifications: Disulfide-linked dimer (non-reducing), glycosylated. The cystatin SN signal peptide is assumed cleaved after ...AVALA by convention, leaving G plus GCN4 LKQEI. C-terminal GSG-3C-AAAA-mScarlet-His …
For the molecule B3, the “stoichiometry N” value in assay [3] was found to be 2.
